Test results taken from doi:10.1101/786475 (bioRxiv, 2019).

What was measured:
Test in all cases: peptide or protein array
[1] = molecular target: Mal12p (spotted on the yeast ProtoArray) (S. cerevisiae, UniProt P53341 1-584)
[2] = molecular target: T1, Drs1p (spotted on the yeast ProtoArray) (S. cerevisiae, UniProt P32892 1-752)
T1 sequence (looked up): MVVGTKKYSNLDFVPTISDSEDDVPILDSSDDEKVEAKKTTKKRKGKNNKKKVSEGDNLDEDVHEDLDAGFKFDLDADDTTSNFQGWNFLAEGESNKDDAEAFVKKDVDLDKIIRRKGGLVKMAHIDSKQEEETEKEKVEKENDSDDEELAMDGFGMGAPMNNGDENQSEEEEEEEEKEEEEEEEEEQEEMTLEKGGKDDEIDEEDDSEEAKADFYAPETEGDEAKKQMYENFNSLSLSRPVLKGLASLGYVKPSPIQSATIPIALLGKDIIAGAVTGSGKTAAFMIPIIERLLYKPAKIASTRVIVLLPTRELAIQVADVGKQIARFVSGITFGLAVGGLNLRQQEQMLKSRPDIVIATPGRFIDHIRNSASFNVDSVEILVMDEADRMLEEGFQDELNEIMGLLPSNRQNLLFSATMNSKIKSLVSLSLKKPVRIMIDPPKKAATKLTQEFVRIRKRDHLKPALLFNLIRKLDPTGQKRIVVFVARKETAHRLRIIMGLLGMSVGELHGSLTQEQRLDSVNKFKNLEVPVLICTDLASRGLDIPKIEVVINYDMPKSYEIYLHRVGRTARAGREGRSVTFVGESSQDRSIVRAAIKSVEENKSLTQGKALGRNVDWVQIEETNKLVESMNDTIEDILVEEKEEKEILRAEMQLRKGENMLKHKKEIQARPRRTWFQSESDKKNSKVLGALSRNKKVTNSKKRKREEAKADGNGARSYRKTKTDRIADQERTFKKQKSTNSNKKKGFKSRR

[3] = molecular target: T2, Ski8p (spotted on the yeast ProtoArray) (S. cerevisiae, UniProt Q02793 1-397)
T2 sequence (looked up): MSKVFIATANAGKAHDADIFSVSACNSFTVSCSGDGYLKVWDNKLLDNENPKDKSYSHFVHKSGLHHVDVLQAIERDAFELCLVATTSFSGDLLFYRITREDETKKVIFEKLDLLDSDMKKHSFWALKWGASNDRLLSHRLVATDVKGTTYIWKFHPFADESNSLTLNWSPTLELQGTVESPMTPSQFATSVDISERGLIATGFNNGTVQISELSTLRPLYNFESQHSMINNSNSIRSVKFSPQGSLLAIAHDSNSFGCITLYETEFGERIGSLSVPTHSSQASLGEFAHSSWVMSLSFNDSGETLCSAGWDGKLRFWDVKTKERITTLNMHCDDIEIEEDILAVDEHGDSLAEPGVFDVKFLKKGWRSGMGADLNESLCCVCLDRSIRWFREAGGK

[4] = molecular target: T3, Cia1p (spotted on the yeast ProtoArray) (S. cerevisiae, UniProt Q05583 1-330)
T3 sequence (looked up): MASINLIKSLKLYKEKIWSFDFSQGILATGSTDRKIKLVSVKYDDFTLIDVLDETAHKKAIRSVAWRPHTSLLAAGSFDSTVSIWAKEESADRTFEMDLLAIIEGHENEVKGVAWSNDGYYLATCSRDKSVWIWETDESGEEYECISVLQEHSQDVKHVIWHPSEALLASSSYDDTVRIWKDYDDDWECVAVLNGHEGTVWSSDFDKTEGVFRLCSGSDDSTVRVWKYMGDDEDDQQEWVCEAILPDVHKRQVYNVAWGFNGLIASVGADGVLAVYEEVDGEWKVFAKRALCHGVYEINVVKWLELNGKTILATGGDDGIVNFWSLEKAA

[5] = molecular target: T4, Eno2p (spotted on the yeast ProtoArray) (S. cerevisiae, UniProt P00925 1-437)
T4 sequence (looked up): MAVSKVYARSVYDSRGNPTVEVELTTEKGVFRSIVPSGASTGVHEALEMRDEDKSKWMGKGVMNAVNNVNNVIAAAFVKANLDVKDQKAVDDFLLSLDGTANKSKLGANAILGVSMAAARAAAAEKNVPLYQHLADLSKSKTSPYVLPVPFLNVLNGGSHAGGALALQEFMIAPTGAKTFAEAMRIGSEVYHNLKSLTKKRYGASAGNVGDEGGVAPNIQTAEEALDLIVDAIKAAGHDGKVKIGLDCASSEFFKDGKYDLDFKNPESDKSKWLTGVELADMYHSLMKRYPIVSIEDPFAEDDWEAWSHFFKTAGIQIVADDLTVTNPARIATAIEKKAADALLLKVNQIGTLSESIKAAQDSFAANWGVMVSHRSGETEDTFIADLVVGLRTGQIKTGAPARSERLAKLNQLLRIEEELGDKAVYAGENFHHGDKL

Measured: binding result

Mal12p (spotted on the yeast ProtoArray), sequence (P53341 whole entry): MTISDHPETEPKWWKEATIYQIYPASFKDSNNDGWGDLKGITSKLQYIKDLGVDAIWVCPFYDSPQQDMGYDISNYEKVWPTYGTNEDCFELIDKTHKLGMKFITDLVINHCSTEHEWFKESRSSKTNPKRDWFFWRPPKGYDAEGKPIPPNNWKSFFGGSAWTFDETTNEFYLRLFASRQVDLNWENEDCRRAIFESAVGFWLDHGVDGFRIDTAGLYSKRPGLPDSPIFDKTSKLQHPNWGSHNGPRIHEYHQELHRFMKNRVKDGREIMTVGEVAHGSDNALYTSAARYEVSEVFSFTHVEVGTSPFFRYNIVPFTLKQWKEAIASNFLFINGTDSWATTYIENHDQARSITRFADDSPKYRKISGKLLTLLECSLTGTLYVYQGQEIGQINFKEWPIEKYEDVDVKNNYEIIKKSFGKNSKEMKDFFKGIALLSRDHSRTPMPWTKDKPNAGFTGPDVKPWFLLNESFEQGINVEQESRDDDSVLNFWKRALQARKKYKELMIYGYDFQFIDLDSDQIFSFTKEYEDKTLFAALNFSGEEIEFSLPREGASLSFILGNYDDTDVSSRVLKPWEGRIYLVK

B1: purified and biotinylated cytoplasmic domain of the Msb2p protein (HIS-Msb2p^CYT) (domain or fragment, S. cerevisiae, UniProt P32334 1207-1306, looked up)
chain: AFKYIIRRRIQSQEIIKNPEISSISSSEFGGEKNYNNEKRMSVQESITQSMRIQNWMDDSYYGHGLTNNDSTPTRHNTSSSIPKISRPIASQNSLGWNEV
modifications: biotinylated in vitro (sites not given)
binds: [1] | [2] | [3] | [4] | [5]
